Data on one molecule can be found in article PMC6549176, “SAGA DUBm-mediated surveillance regulates prompt export of stress-inducible transcripts for proteostasis” (Nature Communications, 2019).

The target in this assay is T1, recombinant Sgf73p (MBP-Sgf73p) (S. cerevisiae, UniProt P53165 1-657).
T1 construct: Sgf73p of the SAGA DUBm, S. cerevisiae; source: recombinant
T1 sequence (looked up): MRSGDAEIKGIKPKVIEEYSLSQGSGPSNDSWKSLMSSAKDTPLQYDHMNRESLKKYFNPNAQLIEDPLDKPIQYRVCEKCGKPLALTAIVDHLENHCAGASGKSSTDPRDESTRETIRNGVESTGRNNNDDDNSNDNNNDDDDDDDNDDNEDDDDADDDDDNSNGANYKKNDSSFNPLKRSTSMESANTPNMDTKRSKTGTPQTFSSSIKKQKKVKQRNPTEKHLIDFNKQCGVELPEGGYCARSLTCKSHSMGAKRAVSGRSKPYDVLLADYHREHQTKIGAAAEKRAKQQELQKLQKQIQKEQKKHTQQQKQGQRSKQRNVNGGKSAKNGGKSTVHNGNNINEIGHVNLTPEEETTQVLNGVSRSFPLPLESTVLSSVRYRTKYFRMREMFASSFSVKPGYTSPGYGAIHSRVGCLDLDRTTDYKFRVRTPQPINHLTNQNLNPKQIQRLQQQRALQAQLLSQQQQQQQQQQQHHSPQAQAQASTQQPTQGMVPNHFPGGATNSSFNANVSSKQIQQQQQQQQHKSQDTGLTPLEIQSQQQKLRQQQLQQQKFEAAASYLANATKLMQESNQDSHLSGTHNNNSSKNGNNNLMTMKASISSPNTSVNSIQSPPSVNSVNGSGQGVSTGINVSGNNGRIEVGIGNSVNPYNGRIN
The assay can be described thus: pull-down; GST-tagged Yra1p or its subfragments as bait (1 µg) on beads, 200 ng target protein; 50 mM HEPES-KOH pH 7.5, 150 mM NaCl, 10% glycerol, 0.1% NP40, 0.5 mM DTT, 1 mM EDTA; 4 °C, 2 h; Western blotting. The conditions noted are these: both partners purified.

B1: GST-tagged Yra1p (natural protein, S. cerevisiae, UniProt Q12159 1-226, looked up)
chain: MSANLDKSLDEIIGSNKAGSNRARVGGTRGNGPRRVGKQVGSQRRSLPNRRGPIRKNTRAPPNAVARVAKLLDTTREVKVNVEGLPRDIKQDAVREFFASQVGGVQRVLLSYNERGQSTGMANITFKNGELARRAVERFNGSPIDGGRSRLRLNLIVDPNQRPVKSLADRIKAMPQKGGNAPRPVKRGPNRKAAMAKSQNKPKREKPAKKSLEDLDKEMADYFEKK
notes: Yra1p, essential mRNA export factor, S. cerevisiae; also called GST-Yra1p
In the case of B1, the binding result is “binds”.
